Reference: patent US8772229B2, “Methods for synthesis and uses of inhibitors of ghrelin O-acyltransferase as potential therapeutic agents for obesity and diabetes” (The Johns Hopkins University, priority 2008, dated 2014)

How the values were obtained:
[1] = target: T1, p300 HAT (Homo sapiens, UniProt Q09472); experiment: Acetyltransferase specificity assay (α-KGDH coupled), p300; type: biochemical
T1 construct: Recombinant acetyltransferase domains and histone tail peptides were prepared as described previously (38-40); made in house
T1 sequence (Q09472 1287-1663 limits assumed): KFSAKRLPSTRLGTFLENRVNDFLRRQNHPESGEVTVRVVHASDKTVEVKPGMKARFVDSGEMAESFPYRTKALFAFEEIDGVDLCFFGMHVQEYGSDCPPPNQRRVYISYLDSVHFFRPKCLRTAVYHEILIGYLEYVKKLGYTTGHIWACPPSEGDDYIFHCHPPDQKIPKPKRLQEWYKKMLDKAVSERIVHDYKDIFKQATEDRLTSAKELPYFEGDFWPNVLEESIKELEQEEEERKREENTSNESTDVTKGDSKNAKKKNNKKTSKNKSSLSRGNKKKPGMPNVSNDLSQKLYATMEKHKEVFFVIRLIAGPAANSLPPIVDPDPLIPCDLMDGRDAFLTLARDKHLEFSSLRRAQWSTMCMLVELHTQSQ
Procedure: (§1) The specificity of GO-CoA-Tat with the acetyltransferases p300, PCAF, and AANAT was measured using an α-ketoglutarate dehydrogenase (α-KGDH) coupled spectrophotometric assay (37). Recombinant acetyltransferase domains and histone tail peptides were prepared as described previously (38-40). The production of CoASH by the acetyltransferase is coupled to the formation of NADH, which is monitored at 340 nm (ε340=6230 M^−1 cm^−1) in a Beckman DU-640 spectrophotometer. All reactions contain 200 μM thiamine pyrophosphate, 5 mM MgCl2, 1 mM DTT, 50 μg/mL BSA, 200 μM NAD, 2.4 mM α-ketoglutarate, 10 μM GO-CoA-Tat, and 50 μM acetyl-CoA. Reactions with p300 were performed in 100 mM HEPES, pH 7.9, and contain 0.1 units α-KGDH and 200 μM H4-15, a 15-mer peptide substrate based on the sequence of the histone H4 tail. p300 reactions are incubated at 30° C. prior to initiation with addition of 100 nM p300 and take place at 30° C. Reactions with PCAF are performed in 100 mM HEPES, pH 7.9, and contain 0.037 units α-KGDH and 100 μM H3-20, a 20-mer peptide substrate based on the sequence of the histone H3 tail. PCAF reactions are incubated at 30° C. for 10 minutes prior to initiation with addition of 100 nM PCAF and take place at 30° C. Reactions with AANAT are performed in 100 mM NH4OAc, pH 6.8, and contain 0.1 units α-KGDH and 200 μM tryptamine. […]

[2] = target: T2, PCAF HAT (Homo sapiens, UniProt Q92831); experiment: Acetyltransferase specificity assay (α-KGDH coupled), PCAF; type: biochemical
T2 construct: Recombinant acetyltransferase domains and histone tail peptides were prepared as described previously (38-40); made in house
T2 sequence (Q92831 503-651 limits assumed): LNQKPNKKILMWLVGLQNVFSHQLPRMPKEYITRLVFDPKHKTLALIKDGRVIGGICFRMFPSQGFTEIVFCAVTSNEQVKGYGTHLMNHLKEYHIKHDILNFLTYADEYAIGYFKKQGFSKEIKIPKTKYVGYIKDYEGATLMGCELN
Procedure: as §1

[3] = target: T3, serotonin N-acetyltransferase (Ovis aries, UniProt Q29495); experiment: Acetyltransferase specificity assay (α-KGDH coupled), AANAT; type: biochemical
T3 construct: Recombinant acetyltransferase domains and histone tail peptides were prepared as described previously (38-40); made in house
T3 sequence (Q29495 35-196 limits assumed): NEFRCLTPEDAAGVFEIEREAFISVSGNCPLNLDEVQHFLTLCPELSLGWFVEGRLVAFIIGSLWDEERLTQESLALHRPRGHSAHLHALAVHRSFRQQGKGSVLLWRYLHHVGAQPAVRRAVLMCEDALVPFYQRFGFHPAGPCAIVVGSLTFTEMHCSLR
Procedure: as §1

[4] = system: HEL cell; experiment: Cell viability assay (LIVE/DEAD), HEL cells; type: cell-based, human; details: 10 μM, 24 hr incubation
Procedure: (§2) The viability of the HEL cell line and the human immortalized hepatocyte cell line HepG2 (ATCC, Manassas, Va.) treated with the varying concentrations of GO-CoA-Tat was determined using a LIVE/DEAD viability assay kit (Molecular Probes). […] were incubated with two probes, 2 μM calcein-AM (green color) for 30 min and 4 μM ethidium homodimer-1 (EtdD-1, bright red color) for 10 min, for intracellular esterase activity and plasma membrane integrity, respectively. Calcein-AM was excited using the 500 nm laser line, and the emitted fluorescence was detected through a 535 nm long-pass filter. EtdD-1 was excited using the 514 nm laser line, and the emitted fluorescence was detected through a 550 nm long-pass filter. Red fluorescent (EtdD-1) cells were counted as dead, and green fluorescent (Calcein-AM) were counted as viable. In cases of dual partial red and green staining, cells were counted as dead.

[5] = system: HEPG2 cell; experiment: Cell viability assay (LIVE/DEAD), HepG2 cells; type: cell-based, human; details: 10 μM, 24 hr incubation
Procedure: as §2

[6] = Blood chemistries and blood cell counts after 12 days of treatment; type: in vivo, mice; details: 12 day treatment
Source text: To investigate the potential for GO-CoA-Tat induced generalized toxicity or organ damage as a source of weight loss, we assessed the blood chemistries and blood cell counts in the 12 day GO-CoA-Tat treated animals.

In the case of `CCCCCCC(SCCNC(=O)CCNC(=O)[C@H](O)C(C)(C)COP(=O)(O)OP(=O)(O)OC[C@H]1O[C@@H](n2cnc3c(N)ncnc32)[C@H](O)[C@@H]1OP(=O)(O)O)C(=O)NC[C@H](NC(=O)[C@H](CO)NC(=O)CN)C(=O)N[C@@H](Cc1ccccc1)C(=O)N[C@@H](CC(C)C)C(=O)N[C@@H](CO)C(=O)N1CCC[C@H]1C(=O)N[C@@H](CCC(=O)O)C(=O)N[C@@H](Cc1c[nH]cn1)C(=O)N[C@@H](CCC(N)=O)C(=O)NCCCCCC(=O)N[C@@H](Cc1ccc(O)cc1)C(=O)NCC(=O)N[C@@H](CCCNC(=N)N)C(=O)N[C@@H](CCCCN)C(=O)N[C@@H](CCCCN)C(=O)N[C@@H](CCCNC(=N)N)C(=O)N[C@@H](CCCNC(=N)N)C(=O)N[C@@H](CCC(N)=O)C(=O)N[C@@H](CCCNC(=N)N)C(=O)N[C@@H](CCCNC(=N)N)C(=O)N[C@@H](CCCNC(=N)N)C(=O)O` (some centres unmarked) [GO-CoA-Tat], the inhibition at 10 µM [1] was under 15%, the inhibition at 10 µM [2] was under 15% and the inhibition at 10 µM [3] was under 15%. The HEL cell viability [4] was “non-toxic”, the HEPG2 cell viability [5] was “non-toxic” and the “organ toxicity from blood chemistries and blood cell counts” value ([6]; 29 mg/kg IP daily) was “no evidence of liver, renal, pancreas, or bone marrow toxicities”. The HDL ([6]; vs. D4-Tat) was “small but significant increases” and the triglycerides ([6]; vs. D4-Tat) was “small but significant increases”.
